In patent publication US20020037288A1 one finds percentage of HM1.24 antigen-positive cells (Expression rate) data, which are given here for one substance.

Experiment [1] has as its target HM1.24 antigen protein (human). In words: FCM, indirect method, 25 ug/ml antibody; JM cells (T cell line).
For experiment [2], the target named is HM1.24 antigen protein (human). In words: FCM, indirect method, 25 ug/ml antibody; CESS cells (B cell line).
For experiment [3], the target named is HM1.24 antigen protein (human). In words: FCM, indirect method, 25 ug/ml antibody; EB-3 cells (B cell line).
Experiment [4] concerns the target HM1.24 antigen protein (human). In words: FCM, indirect method, 25 ug/ml antibody; KT-3 cells (T cell line).
In experiment [5] the target is HM1.24 antigen protein (human). In words: FCM, indirect method, 25 ug/ml antibody; MT-1 cells (T cell line).
The target in experiment [6] is HM1.24 antigen protein (human). In words: FCM, indirect method, 25 ug/ml antibody; MC116 cells (B cell line).
The target in experiment [7] is HM1.24 antigen protein (human). In words: FCM, indirect method, 25 ug/ml antibody; Jijoye cells (B cell line).
For experiment [8], the target named is HM1.24 antigen protein (human). In words: FCM, indirect method, 25 ug/ml antibody; Jurkat cells (T cell line).
Experiment [9] concerns the target HM1.24 antigen protein (human). In words: FCM, indirect method, 25 ug/ml antibody; MOLT-4 cells (T cell line).
Experiment [10] concerns the target HM1.24 antigen protein (human). In words: FCM, indirect method, 25 ug/ml antibody; CCRF-SB cells (B cell line).
For experiment [11], the target named is HM1.24 antigen protein (human). In words: FCM, indirect method, 25 ug/ml antibody; HPB-ALL cells (T cell line).
Experiment [12] deals with HM1.24 antigen protein (human). In words: FCM, indirect method, 25 ug/ml antibody; HPB-MLT cells (T cell line).
In experiment [13] the target is HM1.24 antigen protein (human). In words: FCM, indirect method, 25 ug/ml antibody; SKW 6.4 cells (B cell line).
The target in experiment [14] is HM1.24 antigen protein (human). In words: FCM, indirect method, 25 ug/ml antibody; CCRF-CEM cells (T cell line).
The target of experiment [15] is HM1.24 antigen protein (human). In words: FCM, indirect method, 25 ug/ml antibody; RPMI 6410 cells (B cell line).
In experiment [16] the target is HM1.24 antigen protein (human). In words: FCM, indirect method, 25 ug/ml antibody; RPMI 8402 cells (T cell line).
For experiment [17], the target named is HM1.24 antigen protein (human). In words: FCM, indirect method, 25 ug/ml antibody; CCRF-HSB-2 cells (T cell line).

Regarding mouse anti-HM1.24 monoclonal antibody, the percentage of HM1.24 antigen-positive cells (Expression rate) was 99.6% in experiment [1]; 94.5% in experiment [2]; 88.3% in [3]; 96% in experiment [4]; 95.9% in [5]; 65% in [6]. Moreover, the percentage of HM1.24 antigen-positive cells (Expression rate) in experiment [7] was 92.3%; in experiment [8], 70.9%; in experiment [9] it was 84.1%; in [10], 98.4%; in experiment [11] it was 63.8%; in experiment [12], 94.6%. In addition, the percentage of HM1.24 antigen-positive cells (Expression rate) turned out to be 92.8% in [13]; 97.8% in experiment [14]; 94.5% in [15]; 94% in [16]; 100% in [17].
